Key:
calcineurin, WT = calcineurin, WT (UniProt Q08209)
calcineurin I396A/I400A = calcineurin I396A/I400A (UniProt Q08209)

- half-maximal CaM concentration (KCaM) for activation of phosphatase activity against a phosphorylated RII peptide (calcineurin, WT): 30 nM
- half-maximal CaM concentration (KCaM) for activation of phosphatase activity against a phosphorylated RII peptide (calcineurin I396A/I400A): 670 nM
Substance: human CaM, untagged (pET28-a) (from UniProt P0DP23 1-149) (natural protein)

From article PMC5698441, “Molecular basis of AKAP79 regulation by calmodulin” (Nature Communications, 2017)
